In paper PMC9709071:

T1: Recombinant DR3-Fc, Q93038
T1 chain: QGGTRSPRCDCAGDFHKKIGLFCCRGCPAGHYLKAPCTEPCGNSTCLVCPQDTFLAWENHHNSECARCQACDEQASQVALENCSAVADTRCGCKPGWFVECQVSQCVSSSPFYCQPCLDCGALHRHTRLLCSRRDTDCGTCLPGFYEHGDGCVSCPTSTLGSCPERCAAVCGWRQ


Key:
[1] = molecular target: Fc-His-TL1A (TL1W61) (human); experiment: ELISA; reversed format: TL1A molecules immobilised, DR3 titrated
[2] = molecular target: T1, Recombinant DR3-Fc, Q93038; experiment: ELISA; details: chain shown with the change; value read at the highest DR3-Fc concentration point, about 1000 nM; parent: est. 130; read off a plot
[3] = glycan lost; control: wild type
[4] = recombinant expression, Expi293; details: glycan lost; control: wild type

Row | response (x 10^6 chemiluminescence) [2] | Binder | also measured
1 |  | Recombinant DR3-Fc (Fc fusion) QGGTRSPRCDCAGDFHKKIGLFCCRGCPAGHYLKAPCTEPCGNSTCLVCPQDTFLAWENHHNSECARCQACDEQASQVALENCSAVADTRCGCKPGWFVECQVSQCVSSSPFYCQPCLDCGALHRHTRLLCSRRDTDCGTCLPGFYEHGDGCVSCPTSTLGSCPERCAAVCGWRQ | EC50 [1]: 2.2 nM
2 | 10 | His-TL1A (TL1W2), O95150 C162S (protein) MAEDLGLSFGETASVEMLPEHGSCRPKARSSSARWALTCCLVLLPFLAGLTTYLLVSQLRAQGEACVQFQALKGQEFAPSHQQVYAPLRADGDKPRAHLTVVRQTPTQHFKNQFPALHWEHELGLAFTKNRMNYTNKFLLIPESGDYFIYSQVTFRGMTSESSEIRQAGRPNKPDSITVVITKVTDSYPEPTQLLMGTKSVCEVGSNWFQPIYLGAMFSLQEGDKLMVNVSDISLVDYTKEDKTFFGAFLL | 
3 |  | TL1A (TNFSF15): N133Q (protein) parent chain: MAEDLGLSFGETASVEMLPEHGSCRPKARSSSARWALTCCLVLLPFLAGLTTYLLVSQLRAQGEACVQFQALKGQEFAPSHQQVYAPLRADGDKPRAHLTVVRQTPTQHFKNQFPALHWEHELGLAFTKNRMNYTNKFLLIPESGDYFIYSQVTFRGMTSECSEIRQAGRPNKPDSITVVITKVTDSYPEPTQLLMGTKSVCEVGSNWFQPIYLGAMFSLQEGDKLMVNVSDISLVDYTKEDKTFFGAFLL | other: solubility [3]: no change; expression_or_secretion [4]: no change
4 | 9 | His-TL1A (TL1W2), O95150 C202S (protein) MAEDLGLSFGETASVEMLPEHGSCRPKARSSSARWALTCCLVLLPFLAGLTTYLLVSQLRAQGEACVQFQALKGQEFAPSHQQVYAPLRADGDKPRAHLTVVRQTPTQHFKNQFPALHWEHELGLAFTKNRMNYTNKFLLIPESGDYFIYSQVTFRGMTSECSEIRQAGRPNKPDSITVVITKVTDSYPEPTQLLMGTKSVSEVGSNWFQPIYLGAMFSLQEGDKLMVNVSDISLVDYTKEDKTFFGAFLL | 
5 | 21 | His-TL1A (TL1W2), O95150 C162L; C202L (protein) VYAPLRADGDKPRAHLTVVRQTPTQHFKNQFPALHWEHELGLAFTKNRMNYTNKFLLIPESGDYFIYSQVTFRGMTSELSEIRQAGRPNKPDSITVVITKVTDSYPEPTQLLMGTKSVLEVGSNWFQPIYLGAMFSLQEGDKLMVNVSDISLVDYTKEDKTFFGAFLL | 
